The target of data set [1] is T1, GST-p53(1-393) (Homo sapiens, UniProt P04637 1-393). Nature of the data set: EMSA. Background: Mobility shift assays separate free from complexed probe on a gel.
The target in data set [2] is T1, GST-p53(1-393). As to the kind of experiment: EMSA. The source holds these as a separate data set.

Like-named read-outs stand apart in the source and are kept apart here.

T1 sequence (P04637 whole entry): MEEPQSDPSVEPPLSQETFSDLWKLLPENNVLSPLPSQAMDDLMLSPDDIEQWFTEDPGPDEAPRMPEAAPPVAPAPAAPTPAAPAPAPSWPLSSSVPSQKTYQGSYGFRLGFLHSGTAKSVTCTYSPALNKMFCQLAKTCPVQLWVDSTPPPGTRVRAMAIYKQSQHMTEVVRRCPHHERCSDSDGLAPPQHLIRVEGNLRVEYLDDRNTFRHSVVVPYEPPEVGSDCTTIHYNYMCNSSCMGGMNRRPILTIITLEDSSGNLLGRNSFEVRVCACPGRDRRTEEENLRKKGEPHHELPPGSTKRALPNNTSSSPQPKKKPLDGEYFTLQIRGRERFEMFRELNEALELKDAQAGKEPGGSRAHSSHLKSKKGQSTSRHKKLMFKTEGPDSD

B1: CCNG1 WT (dsDNA)
DNA 1: AAACTCTACCGCTGTTGTGAGCACAAGCCCAGGCTAGTCCGAGGCTGGAGGGGCGGAGCC
DNA 2: GGCTCCGCCCCTCCAGCCTCGGACTAGCCTGGGCTTGTGCTCACAACAGCGGTAGAGTTT
Turning to B1, the binding result with GST-p53(1-393) [1] is on record as “binds”.

B2: CCNG1 L2 (dsDNA)
DNA 1: TACAAGGAGGCTTTTCATCCGCACAAGCCCAGGCTAGTCCGAGGCTGGAGGGGCGGAGCC
DNA 2: GGCTCCGCCCCTCCAGCCTCGGACTAGCCTGGGCTTGTGCGGATGAAAAGCCTCCTTGTA
In the case of B2, in the data set with GST-p53(1-393) [2], the binding result is “binds”.

(Values after paper PMC7192610.)
